Results: the supplement of paper PMC10126150
± gives the standard deviation of the averaged measurements.

System: ATP
Test: switch fluorescence ratio, 500 uM ATP over buffer (Cy3 cluster intensity, sum of 5 cycles each) (fold (ratio)); higher = stronger signal-on switching upon ATP binding; sequences stand for … in TCGTCGGCAGCGTCAGATGTGTATAAGAGACAGTTTTTTTTTTTTTTTTTTTTTTTTT…TC
Conditions: aptamer strand: ATP DNA aptamer (quencher-CACCTGGGGGAGTATTGCGGAGGAAGG + anchor), 100 nM annealed; ATP concentration: 500 uM
How it was run: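 For every switch-domain sequence, the fluorescence ratio is the mean of per-cluster values, each being summed target-cycle Cy3 intensity over summed buffer-cycle Cy3 intensity. Clusters outside 100-1000 RFU were excluded. On a modified Illumina MiSeq flow-cell, the Cy3-labelled switching-strand clusters were annealed to 100 nM quencher-labelled ATP aptamer, imaged in selection buffer and then after 15 min with 500 uM ATP at 22 °C. Five such cycles were run, with NaOH stripping and re-annealing between them.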
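Further: ATP exposure 15 min at 22 °C before imaging.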

Sequence | switch fluorescence ratio
TATGCCAGCG | 1.01 ± 0.025
GAAGGGAGGT | 0.987 ± 0.012
ACGCTGGCGA | 1.03 ± 0.021
GGGGGCCCTG | 0.98993 ± 0.0009
TAATTATGAG | 0.9902 ± 0.0071
GCTATAGAAT | 1.01 ± 0.028
TTCAGAAGTC | 1.01 ± 0.056
GATTAAAAT | 1.01 ± 0.013
TTTGAAACCA | 1.01 ± 0.024
TGACAGTAAC | 1.25 ± 0.25
CAAAAAGGCG | 1.03 ± 0.054
CGATAGATGA | 0.993 ± 0.018
GCACTCTGAG | 0.993 ± 0.029
CGTGAAGGTG | 1.24 ± 0.074
CGTTCTAGTG | 0.974 ± 0.011
ATTTAGTTCT | 0.981 ± 0.027
GGTTGAAAGT | 1.48 ± 0.69
GGAAGGGGGC | 0.9707 ± 0.0066
GCTGGAAGCA | 0.986 ± 0.078
GTAAATTATG | 0.986 ± 0.018
GACCATGTTT | 0.9932 ± 0.0082
TTTAACATAT | 1.022 ± 0.004
ATGGGAATAC | 2.59 ± 0.28

Sequence | switch fluorescence ratio
TTAGATAGGA | 0.999 ± 0.01
ACTGGCAGGG | 1.01 ± 0.028
ACTTAGTGCC | 1.087 ± 0.0073
AGCATGTGGC | 0.991 ± 0.016
GAAGTAGGCG | 1.03 ± 0.028
TTTGAAGCAA | 4.2 ± 3.2
TTGCCAAATT | 1.12 ± 0.13
ATGCAACGTC | 0.989 ± 0.049
AAATTGAACT | 1.03 ± 0.017
CGACTCGACG | 1.013 ± 0.006
AGCAGTGTGC | 0.9981 ± 0.0027
CGTGGTTAAG | 1.01 ± 0.038
CGTGAGAGCA | 1.01 ± 0.035
AAAATCTTAG | 1 ± 0.036
AAAATTGTGT | 1.01 ± 0.015
TTTTACTTGT | 1.025 ± 0.0037
ACACTTGCGC | 1.02 ± 0.038
GGACACGATT | 0.986 ± 0.051
TTCTTCCTTT | 1.028 ± 0.0051
ACCCGCACTT | 1.82 ± 0.24
CCTTTAATGT | 1.01 ± 0.022
TTAAGTCAAG | 0.98687 ± 0.00044
GGAGAAATGT | 0.998 ± 0.011

Sequence | switch fluorescence ratio
TTAACAAGGA | 1.018 ± 0.0085
GGTTGAAGGT | 1 ± 0.03
AAGTTTGTT | 0.983 ± 0.027
GAGGTTTCAC | 0.965 ± 0.023
TTGACGATTT | 1.05 ± 0.063
CATCGGATAT | 1.04 ± 0.052
TGAGATAGAT | 1 ± 0.013
AAGGCTGTGT | 1.001 ± 0.0095
TCGTGATTTT | 1 ± 0.035
TTTGCGGGGG | 1.01 ± 0.035
AAGATTGGTG | 0.991 ± 0.041
ATTCTTACCG | 1.09 ± 0.044
GCCGGATT | 1.01 ± 0.04
GGAACGTTGG | 0.973 ± 0.045
CGAGGGTCGG | 1.01 ± 0.042
GTGGGGTATG | 0.977 ± 0.032
ATAGGTTTTT | 0.973 ± 0.024
GAGTTGGGGG | 1.02 ± 0.012
AGAGAAAGGG | 1.02 ± 0.035
AGGTCGATCC | 0.993 ± 0.05
GGGGGGCTGG | 0.979 ± 0.025
TGCTATTAGG | 0.979 ± 0.045
AATTCTTGGG | 0.981 ± 0.018

Sequence | switch fluorescence ratio
TGGGGACGGA | 1.02 ± 0.054
GGGGCGGGTG | 0.993 ± 0.039
TATATCAGTC | 1.02 ± 0.058
AGTGGGAATG | 0.9595 ± 0.0078
AGGTGTATTG | 1.03 ± 0.017
CTCATGTTGG | 0.983 ± 0.015
ACTTGTAGAT | 1.009 ± 0.0059
AAAGGCATTC | 1.05 ± 0.025
GATTGCCAGG | 1.05 ± 0.035
GTGTTTGGCT | 0.972 ± 0.024
AATTTGTATT | 0.997 ± 0.011
AATATGTGTA | 0.987 ± 0.018
AAAGCCGTTT | 1.2 ± 0.27
GAGTCAGAAT | 1.01 ± 0.013
ATATTCGTTG | 1.007 ± 0.0027
AACGGTAGTG | 1.09 ± 0.03
TATCCAATCA | 0.9719 ± 0.0081
GCGTTTGTGG | 1 ± 0.011
CAGTTTTCCC | 1.01 ± 0.016
AGAAATAATC | 1.01 ± 0.015
TTTGCTGTAT | 0.9747 ± 0.0032
GCCTAATTGA | 0.98434 ± 0.00034
CGTGGCAGGA | 1.03 ± 0.021

Sequence | switch fluorescence ratio
TTATACGTTG | 1.02 ± 0.019
TCGGAGGGTT | 1.016 ± 0.0052
TTCGGTTTGT | 0.98 ± 0.032
AGGATGGGTG | 0.991 ± 0.021
TGGGGGCTT | 1.03 ± 0.014
AAATGGGGGA | 0.991 ± 0.04
GGGACCATAT | 1.03 ± 0.015
GGGGGGAGGC | 0.995 ± 0.028
CGGGTAATGG | 1.03 ± 0.07
CCGGGTATGG | 1.02 ± 0.016
TTGGACGGTA | 1.06 ± 0.1
GATGAAAAAT | 0.975 ± 0.024
CAATATTAGT | 0.996 ± 0.024
GTCGTATAGG | 0.978 ± 0.023
ATGTAACTTT | 1.16 ± 0.27
TTGTTAGTT | 1.02 ± 0.03
TTGCTTTTGC | 1 ± 0.023
CGTGGGGTGG | 1.02 ± 0.045
TGAAATTTAA | 1 ± 0.0065
TCATTCTGGG | 1.008 ± 0.0097
TATAATATTT | 1 ± 0.021
TTCGTGGTGT | 1.03 ± 0.015
TCATCTTGGC | 1.02 ± 0.096

Sequence | switch fluorescence ratio
TGTTTTGTGG | 1.02 ± 0.018
ACAGGCGTCA | 1.02 ± 0.024
CGAGTCGACG | 0.99 ± 0.07
GAGGAATTGG | 0.979 ± 0.012
TGTGATAGAG | 0.989 ± 0.029
AGGGTTAAAT | 1 ± 0.012
CCGGGAAAGC | 1.18 ± 0.25
GAGAGGTG | 1.08 ± 0.021
CGGGGGAGAA | 1 ± 0.034
TTAGGCTTGG | 1.06 ± 0.067
TTTAGGGGAC | 1 ± 0.012
GAGGGATCAG | 0.994 ± 0.011
GGGTCTGCGC | 1.03 ± 0.024
CGATGAGTTT | 1.01 ± 0.033
TGGGGGTGG | 0.957 ± 0.046
CGGGGGGGTA | 1 ± 0.027
CCAACTTTTC | 1.0433 ± 0.00094
TGGGGGGGTT | 1 ± 0.034
CGTTTAGGCA | 1.02 ± 0.024
TTTTGTGAGA | 1.026 ± 0.0075
GACGGGGACT | 1.1 ± 0.025
TAAGACGTCC | 1.016 ± 0.0088
ATGGCCGGTG | 1.006 ± 0.004

Sequence | switch fluorescence ratio
GTCGGCATGG | 1.07 ± 0.059
TAATTGGTGC | 1.049 ± 0.0075
TCGCGAAATG | 0.968 ± 0.025
CCTGGTACGT | 1.01 ± 0.034
CGAGGGGGG | 0.997 ± 0.015
ACTTCCCAAC | 1.33 ± 0.047
AGGTTTCTCT | 0.966 ± 0.031
TCGCGCGGGT | 0.9887 ± 0.008
TGTTGGTATA | 1.01 ± 0.012
TTGGATATTT | 1 ± 0.015
GGGGTTGGCA | 1.03 ± 0.014
TAATGACTCA | 1.034 ± 0.008
ATTCGTGGGA | 0.9892 ± 0.0074
AGGGACTTTA | 1.0332 ± 0.00011
TAGGTGTGTT | 0.981 ± 0.019
ACGGCCTAAA | 0.98 ± 0.043
TGATTTTCTG | 1.008 ± 0.002
AGTTTTTTCG | 0.973 ± 0.023
TATGGATTGT | 1.01 ± 0.04
